In PMC6042069:
Changes are numbered by the printed parent chain. Where two headings read alike, the source gives them in different places.

Key:
Assay in all cases: EMSA
PPARγ2;RXRα [1] = target: T1, PPARγ2;RXRα (mouse;human, UniProt P37238;P19793 1-505;1-462, |)
PPARγ2;RXRα [2] = target: T1, PPARγ2;RXRα; remark: listed apart in the source
PPARγ2;RXRα [3] = target: T1, PPARγ2;RXRα; remark: listed apart in the source

B1: LepRE1 DR1 (GOF) (dsDNA)
DNA 1: AAGATTTGAACTTTGAACTGAATTGGCTGCAGC
DNA 2: GCTGCAGCCAATTCAGTTCAAAGTTCAAATCTT
binding result (PPARγ2;RXRα [1]): binds

B2: LepRE1 LOF (dsDNA)
DNA 1: AAGATTTGAAATTTCCGCAGAATTGGCTGCAGC
DNA 2: GCTGCAGCCAATTCTGCGGAAATTTCAAATCTT
binding result (PPARγ2;RXRα [2]): no binding

B3: LepRE1 EXT (dsDNA)
DNA 1: B2 DNA 1 with A11C, A21G
DNA 2: B2 DNA 2 with T13C, T23G
binding result (PPARγ2;RXRα [3]): binds
